Patent US20240358731A1, “SUMO PATHWAY AS AN OXYGEN SENSOR RELEVANT TO THE PATHOPHYSIOLOGY OF PULMONARY ARTERY HYPERTENSION AND CARDIAC ARRHYTHMIA” (Northeastern University, priority 2023, published 2024)

Target: T1, Kir2.4 (Homo sapiens, UniProt Q9UNX9)
T1 sequence (Q9UNX9 1-436): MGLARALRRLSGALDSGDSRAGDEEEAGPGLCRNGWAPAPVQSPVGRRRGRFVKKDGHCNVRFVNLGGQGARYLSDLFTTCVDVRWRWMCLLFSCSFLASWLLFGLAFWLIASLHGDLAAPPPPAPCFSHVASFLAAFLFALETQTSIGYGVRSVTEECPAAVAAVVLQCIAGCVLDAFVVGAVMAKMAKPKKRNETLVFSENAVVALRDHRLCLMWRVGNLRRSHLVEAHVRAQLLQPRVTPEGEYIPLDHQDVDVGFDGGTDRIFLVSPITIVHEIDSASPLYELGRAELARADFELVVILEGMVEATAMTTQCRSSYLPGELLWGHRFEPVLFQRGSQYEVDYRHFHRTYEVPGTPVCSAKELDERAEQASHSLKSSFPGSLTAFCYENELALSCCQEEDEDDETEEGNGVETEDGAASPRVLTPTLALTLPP
Test: Two-electrode voltage-clamp of Kir2.4 currents in Xenopus oocytes
Type: cell-based
Set-up: expressed in transfected cells; host or cells: Xenopus oocytes (RNA injection)
Settings: expression of SENP1
Description: FIG. 5A discloses SEQ ID NOS 6-9, respectively, in order of appearance. […] SENP1 increases the current. […] SUMO sensitivity is transferred to Kir2.3 when the site in Kir2.1 is recreated by mutagenesis (Kir2.3-N25D).
Co-expressed SUMO decreases Kir2.4 currents in Xenopus oocytes. Using the SUMOplot algorithm to assess potential SUMOylation sites based on the canonical motif ψ-K-X-E/D, we identified the high probability SUMO site V-K54-K-D (SEQ ID NO: 4) in the N-terminal sequence of Kir2.4. SUMO covalently modifies Kir2.4 at K54 (FIG. 5) and tested the idea using two-electrode voltage-clamp (TEVC), a sensitive assay to study the regulation of Kir channels. Kir2.4 currents, assessed at −80 mV in a high K^+ (96 mM) bath solution, decreased in a dose-dependent manner with co-expression of SUMO1 (FIG. 5). Co-injection of 5 ng of human SUMO1 RNA decreased Kir2.4 currents by ˜50%. In contrast, expression of SENP1 increased Kir2.4 by ˜50%. […] The analogous sequence in Kir2.2 and Kir2.3 is V-K-K-N(SEQ ID NO: 5), which lacks the terminal aspartic acid, reduced the probability of SUMOylation from 0.93 to 0.31. Consistent with this, Kir2.3 currents were insensitive to SUMO1 and SENP1. […] This last result is consistent with a protein-protein interaction between the channel and SUMO1.

increase of Kir2.4 currents: ~50%
B1: SENP1: purified deSUMOylating enzyme (SUMO specific protease) introduced via the recording pipette or expressed (protein, UniProt Q9P0U3 1-644, looked up)
Sentrin-specific protease 1: MDDIADRMRMDAGEVTLVNHNSVFKTHLLPQTGFPEDQLSLSDQQILSSRQGHLDRSFTCSTRSAAYNPSYYSDNPSSDSFLGSGDLRTFGQSANGQWRNSTPSSSSSLQKSRNSRSLYLETRKTSSGLSNSFAGKSNHHCHVSAYEKSFPIKPVPSPSWSGSCRRSLLSPKKTQRRHVSTAEETVQEEEREIYRQLLQMVTGKQFTIAKPTTHFPLHLSRCLSSSKNTLKDSLFKNGNSCASQIIGSDTSSSGSASILTNQEQLSHSVYSLSSYTPDVAFGSKDSGTLHHPHHHHSVPHQPDNLAASNTQSEGSDSVILLKVKDSQTPTPSSTFFQAELWIKELTSVYDSRARERLRQIEEQKALALQLQNQRLQEREHSVHDSVELHLRVPLEKEIPVTVVQETQKKGHKLTDSEDEFPEITEEMEKEIKNVFRNGNQDEVLSEAFRLTITRKDIQTLNHLNWLNDEIINFYMNMLMERSKEKGLPSVHAFNTFFFTKLKTAGYQAVKRWTKKVDVFSVDILLVPIHLGVHWCLAVVDFRKKNITYYDSMGGINNEACRILLQYLKQESIDKKRKEFDTNGWQLFSKKSQEIPQQMNGSDCGMFACKYADCITKDRPINFTQQHMPYFRKRMVWEILHRKLL
